# Where “and” joins values, the source holds several entries; their conditions need not be identical. Identical values can stand only once.
# B1: rPsaA: purified recombinant pneumococcal surface adhesin A, non-lipidated, donated by Aventis-Pasteur (protein)
# chain: CASGKKDTTSGQKLKVVATNSIIADITKNIAGDKIDLHSIVPIGQDPHEYEPLPEDVKKTSEADLIFYNGINLETGGNAWFTKLVENAKKTENKDYFAVSDGVDVIYLEGQNEKGKEDPHAWLNLENGIIFAKNIAKQLSAKDPNNKEFYEKNLKEYTDKLDKLDKESKDKFNKIPAEKKLIVTSEGAFKYFSKAYGVPSAYIWEINTEEEGTPEQIKTLVEKLRQTKVPSLFVESSVDDRPMKTVSQDTNIPIYAQIFTDSIAEQGKEGDSYYSMMKYNLDKIAEGLAK
# What was measured:
# Type in all cases: cell-based, human
# [1] = tested on: Detroit 562 cells; experiment: Adherence of rPsaA- or peptide-coated fluospheres (beads) to Detroit 562 cells; settings: for mean adherence of coated fluospheres (mean FU±SE): 3,100±500 fluospheres per well, 2 hour incubation; for mean adherence signal (n=6): 2600 fluospheres/well; for mean adherence (% CV): batch 6, dilution 1:100, 2,600 fluospheres
# Description: (§1) Carboxylate-modified fluorospheres (Molecular Probes™, […]) coated with either recombinant PsaA (rPsaA) or PsaA synthetic peptide (P4) were evaluated for their adherence to Detroit 562 NP cells. Four different batches of PsaA beads were generated by varying the concentration of the protein solution used to coat the beads (0.9 mg/ml, 0.53 mg/ml, 5.3 μg/ml and 0.53 μg/ml). P4 and Glycine control beads were generated by using a peptide solution (0.9 mg/ml). Protein concentrations were confirmed by the Bradford test (Sigma). PsaA and peptide beads were compared at similar inocula (1640±210 beads per well) in adherence and adherence competition assays (measured as mean fluorescent units (FU±SE)).
# Recombinant PsaA protein or synthetic peptides were covalently bound to carboxylate-modified FluoSpheres (Molecular Probes, Eugene, Oreg.) (505/515 nm range, yellow, 1 μm in diameter). […] The 2% fluosphere stock was vortexed for 2 minutes at full speed. A 250-μl aliquot was sonicated for 5 minutes to break clumps. The sonicated fluospheres were washed 3 times by centrifugation at 10,000 rpm for 10 minutes in 250 μl MES buffer, pH 6.0 (Molecular Probes). The negative charge in the carboxylate-modified fluospheres was activated by adding 50 μl of EDAC solution (100 mg/ml, Molecular Probes) to the washed fluospheres resuspended in 200 μl MES. The fluospheres were incubated for 30 minutes RT with gentle rotation. A 250-μl volume of rPsaA (1 mg/ml) or peptide (2 mg/ml) resuspended in MES buffer was added to each fluosphere pellet. Suboptimal concentrations of rPsaA (900, 530, 5.3 and 0.53 μg/ml) were also used to generate partially coated fluospheres. Peptides were dissolved as 1 mg in 50 μl of 10% acetic acid followed by addition of 450 μl of MES buffer, pH 6.0. The 500-μl fluosphere suspension was incubated in the dark over night at room temperature with horizontal rotation (150 rpm). The remaining reactive sites were blocked by addition of a 50-μl volume of 1 M solution of glycine, followed by a-30-minute incubation at room temperature with horizontal rotation. The fluosphere suspension was then washed with 500 μl PBS, 50 mM, pH 7.2-7.4 three times by centrifugation at 10,000 rpm for 10 minutes. The first supernatant of the first wash was saved for protein determinations using the microtiter microdilution method of Bradford (Bio-Rad Laboratories, Calif.). The labeled fluosphere pellet was resuspended in 500 μl of PBS, 50 mM, pH 7.2-7.4. Labeled fluospheres were stored in the dark in 100-μl aliquots at 4° C. for up to 4 months. The peptides were stored in powder form at 4° C. under Dryerite desiccant. The resuspended peptides were stored at 4° C. for 6 weeks and for long term storage at −70° C. Fluospheres were counted by limiting dilution using a fluorometer (FLX-600, BioTek) with 485/520 nm excitation/emission wavelength and comparison to a calibration curve previously generated against hemacytometer counts.
# Confluent monolayers of Detroit 562 cells grown in 96-well tissue culture plates for 6 days were washed once with 130 μl/well of PBS buffer+0.5% BSA (Sigma cat #A2153, Fraction V purified by alcohol precipitation). The entire outer perimeter of the microtiter plate was not used for adherence assays due to edge effect and lack of confluent growth in these wells. An 80-μl volume per well of PBS buffer+1% BSA and 20 μl per well of diluted fluosphere suspension (to yield ˜3100±500 fluospheres in a 20-μl volume) were added to the washed monolayers. The diluted fluosphere suspension was sonicated for 3 minutes prior to addition to the center of the wells. […] The sides of the plates were then tapped gently to mix. […] Following incubation, plates were washed 5 times with 130 μL/well of PBS+0.5% BSA. The liquid was removed after each wash with a multi-channel aspirator (Costar) and moderate vacuum. The plate was allowed to dry before reading in the fluorometer (485/520 nm). […]
# [2] = tested on: Detroit 562 cells; experiment: Competitive inhibition of adherence of rPsaA-coated fluospheres to Detroit 562 cells; settings: for percent reduction in adherence of rPsaA-coated beads: rPsaA-coated beads 0.9 mg/ml batch, ~1,640 beads per well
# Description: as §1
# (§2) Homologous competitive inhibitions with 0.5 to 10 μg per well of rPsaA protein or 5 to 20 μg per well of each peptide were performed to determine the specificity of the adherence for rPsaA-coated fluospheres or for each of the three peptide-coated fluospheres. Heterologous competitive inhibitions with each peptide (10 μg per well) were performed to determine which peptide blocked the adherence of whole PsaA-coated fluospheres to the Detroit 562 cells. Absorption of PsaA-specific antibodies was performed by incubation (2 hours at ambient room temperature with rotation, 100 rpm) of 500 μl (1:8 dilution) of the serum 7051 with nitrocellulose strips (2.5×0.5 cm), previously impregnated with rPsaA protein (1.8 mg/ml) and allowed to dry at 37° C. for 1 hour. Strips were replaced every 2 hours for a total of 3 changes. All antibody absorptions were performed in PBS (10 mM, pH 7.2) supplemented with 1% (weight/volume) BSA as a non-specific blocker. Immunoglobulin G (IgG) concentrations (μg/ml) were measured as previously described (Tharpe, Romero-Steiner) after each absorption step to monitor the decline of anti-PsaA antibodies.
# [3] = tested on: Detroit 562 cells; experiment: Homologous competitive inhibition of adherence of rPsaA- or peptide-coated fluospheres to Detroit 562 cells; settings: for percent reduction in adherence of P4-coated beads: ~1,640 beads per well
# Description: as §1, §2
# [4] = homologous competitor 5.0 μg/well
# [5] = homologous competitor 10 μg/well
molecule,measurement,setting,value
"LFVESSVKRRPMKTVSQDTNIPIYAQIF [P4, non-branched synthetic peptide, PsaA amino acid residues 251 to 278 with DD changed to KR]",mean adherence of coated fluospheres (mean FU±SE),[1],"20,317±448 FU"
same,adherence of P4-coated beads (FU±SE),"[1]; beads coated with 0.9 mg/ml peptide solution, 1640±210 beads per well","19,340 FU"
same,inhibition of the binding of PsaA protein to Detroit 562 cells,[2],≥ 95%
same,percent reduction in adherence of rPsaA-coated beads,[2]; competitor 5.0 μg/well,23% and 18.5%
same,percent reduction in adherence of rPsaA-coated beads,[2]; competitor 10 μg/well,57.6%
same,percent reduction in adherence of rPsaA-coated beads,[2]; competitor 20 μg/well,95% and 95.9%
same,"inhibition of rPsaA-fluosphere adherence, heterologous competition",[2]; peptide 10 μg/well,57.6%
same,"inhibition of rPsaA-fluosphere adherence, heterologous competition",[2]; peptide 20 μg/well (6.2×10^−2 mM),95.9%
same,percent reduction in adherence of P4-coated beads,[3]; competitor 5.0 μg/well,89% and 89.4%
same,percent reduction in adherence of P4-coated beads,[3]; competitor 10 μg/well,88% and 87.6%
same,percent reduction in adherence of P4-coated beads,[3]; competitor 20 μg/well,89% and 88.9%
same,percent reduction in adherence of homologous coated fluospheres,[3]; [4],89.4%
same,percent reduction in adherence of homologous coated fluospheres,[3]; [5],87.6%
same,percent reduction in adherence of homologous coated fluospheres,[3]; homologous competitor 20 μg/well,88.9%
B1,mean adherence signal (n=6),[1]; 20 min incubation,"2,315 FU"
same,mean adherence signal (n=6),[1]; 140 min incubation (plateau starts),"16,597 FU"
same,mean adherence signal (n=6),[1]; 180 min incubation,"17,498 FU"
same,mean adherence of coated fluospheres (mean FU±SE),[1],"44,195±2,648 FU"
same,mean adherence (% CV),[1]; day 1 after labeling,"30,105 FU"
same,mean adherence (% CV),[1]; day 60 after labeling,"30,595 FU"
same,adherence of PsaA beads (FU±SE),"[1]; beads coated with 0.53 μg/ml rPsaA, 1640±210 beads per well","5,892 FU"
same,adherence of PsaA beads (FU±SE),"[1]; beads coated with 5.3 μg/ml rPsaA, 1640±210 beads per well","12,788 FU"
same,adherence of PsaA beads (FU±SE),"[1]; beads coated with 0.53 mg/ml rPsaA, 1640±210 beads per well","16,748 FU"
same,adherence of PsaA beads (FU±SE),"[1]; beads coated with 0.9 mg/ml rPsaA, 1640±210 beads per well","47,875 FU"
same,"inhibition of the adherence of PsaA-coated fluospheres, cold chase",[2]; non-fluorescent spheres coated with PsaA protein,up to 31%
same,reduction of adherence of rPsaA fluospheres by whole recombinant protein,[3]; 0.5 to 10 μg/well,unable to significantly reduce
same,reduction of adherence of rPsaA-coated fluospheres,[3]; additional concentrations 0.125 to 10.0 μg/well vs 3 μg/well,did not result in any further reduction
same,percent reduction in adherence of homologous coated fluospheres,[3]; homologous competitor 0.5 μg/well,−5.2%
same,percent reduction in adherence of homologous coated fluospheres,[3]; homologous competitor 1.0 μg/well,9.8%
same,percent reduction in adherence of homologous coated fluospheres,[3]; homologous competitor 2.0 μg/well,17.0%
same,percent reduction in adherence of homologous coated fluospheres,[3]; [4],13.7%
same,percent reduction in adherence of homologous coated fluospheres,[3]; [5],11.4%

# — US7919104B2, “Functional epitopes of Streptococcus pneumoniae PsaA antigen and uses thereof” (priority 2005, dated 2011)
